Test results taken from patent US8530168B2, “Fusion protein comprising a Caspase domain and a nuclear hormone receptor binding domain and methods and uses thereof” (Helmholtz Zentrum Munich Deutsches Forschungszentrum fuer …, priority 2007, dated 2013).
“Also recorded” adds a separate entry of the source.

Columns and labels:
Type in all cases: cell-based, mouse
MEF5/N9 cells [1] = assay: Transient cotransfection of ER(T2) fusion expression vectors with β-galactosidase reporter; β-galactosidase activity in lysates; conditions: 10^−8 M 4-OH-tamoxifen, 48 h; for relative β-galactosidase activity in presence of 4-OH-tamoxifen compared to the negative control: relative to Cre-ER(T2) without 4-OH-tamoxifen
Experimental: The transformed mouse embryonic fibroblast cell line MEF5/N9 (Schwenk et al., Nucleic Acids Research, 26(6) 1427-1432 (1998)) was obtained from Michel Aguet (University of Zurich, Switzerland). The cells were grown in DMEM medium (Life Technologies) supplemented with 2 mM […] and 10% fetal calf serum at 37° C., 5% CO2 in humid atmosphere and passaged upon trypsinization. One day before transient transfection 4·10^4 cells were plated into a 24-well plate (Falcon). For the transient transfection of MEF5/N9 cells with plasmids, each well received into 500 μl of medium a total amount of 150 ng or 200 ng supercoiled plasmid DNA complexed before with the FuGene6 transfection reagent (Roche Diagnostics GmbH, Mannheim, Germany) according to the manufacturer's protocol. Each 150 ng or 200 ng DNA preparation (FIG. 2 sample 1 to 11) contained 100 ng of the β-Galactosidase expression vector pCMV-β-gal-pA (pCMVβ, Clontech, FIG. 1G, SEQ ID NO: 56), and 100 ng of the fusion ER(T2) expression vectors to be tested (FIG. 2 sample 3-7, 10-11) and the control plasmids (FIG. 2 sample 1-3), except for the samples with the plasmids pCAG-Casp9full-ER(T2)-bpA (FIG. 2 sample 8) and pCAG-Casp9trunc-ER(T2)-bpA (FIG. 2 sample 9), respectively, that received 50 ng of the test vector. For each sample to be tested four individual wells were transfected. Five hours after the addition of the DNA preparations each well received additional 500 μl of growth medium. The following day, the medium of two wells of each sample was replaced by fresh medium. The other two wells received medium containing 10^−8 M 4-hydroxy-tamoxifen (Sigma). 48 hours after induction with 4-OH-tamoxifen, the cells of each well were lysed with 200 μl lysate reagent supplemented with protease inhibitors (Roche Diagnostics GmbH). The lysates were centrifuged and 50 μl were used to determine the β-galactosidase activities using the β-galactosidase reporter gene assay (Roche Diagnostics GmbH) according to the manufacturer's protocol in a microplate luminometer (Berthold Detection Systems GmbH). The mean value and standard deviation of the samples was calculated from the β-galactosidase RLU values obtained from the two transfected wells of each sample. The relative β-galactosidase activity was obtained by comparison to the negative control (pCAG-Cre-ER(T2)-bpA) without 4-OH-tamoxifen.
To investigate the cell death effect of the different ER(T2) fusion constructs quantitatively, we performed transient cotransfections of the ER(T2) fusion protein expression vectors together with a fixed amount of a reporter plasmid coding for β-galactosidase in MEF5/N9 fibroblast cells. Transfected cells were treated 12 hours after transfection with 4-OH-tamoxifen at a concentration of 10^−8 M. Following 48 hours of 4-OH-tamoxifen induction, the cells from the various samples were lysed and the activity of β-galactosidase in the lysates was determined by a chemiluminescence assay and expressed in “Relative Light Units” (RLU) (FIG. 2). As positive controls for 4-OH-tamoxifen-inducible cell death, we prepared samples transfected with the constructs pCAG-HAFas-ER(T2) or pCAG-MFas-ER(T2) together with the reporter plasmid and treatment with 4-OH-tamoxifen. As negative control for this assay served samples which received the reporter plasmid together with the expression vector pCAG-Cre-ER(T2) and that were treated with 4-OH-tamoxifen.
To determine the relative activity of the tested ER(T2) fusion constructs inducing apoptosis in the presence of 4-OH-tamoxifen, the RLU values of β-galactosidase activity were divided individually for each sample by the RLU value obtained from the sample which received the plasmid pCAG-Cre-ER(T2) but was not treated with 4-OH-tamoxifen (defined as negative control). The relative activity of the tested Caspase- or bax-ER(T2) fusion proteins was then compared to the negative control for 4-OH-tamoxifen-dependent cell death defined as an activity of 1.

MEF5/N9 cells [2] = assay: as above; conditions: no 4-OH-tamoxifen; transient transfection 50 or 100 ng vector; relative to Cre-ER(T2) without 4-OH-tamoxifen
MEF5/N9 cells [3] = assay: Visible phenotypic changes / viability of stably transfected MEF5/N9 clones on 4-OH-tamoxifen treatment; conditions: 10^−8 M 4-OH-tamoxifen, 24 h
Experimental: (§1) To generate stably transfected MEF5/N9 cells, 2·10^6 cells were coelectroporated with 32 μg ER(T2) fusion plasmid DNA linearised with ScaI and 8 μg pPgk-hygro-pA plasmid DNA linearised with XhoI and plated into two 96-well plates. The cells were grown in DMEM medium (Invitrogen) supplemented with 2 mM Glutamine and 10% fetal calf serum at 37° C., 5% CO2 in humid atmosphere, and passaged upon trypsinization. Two days after transfection the medium was supplemented with 250 U/ml of hygromycin (Calbiochem) for the selection of stable integrants. Upon the growth of resistant colonies these were individually expanded in the presence of hygromycin.
To examine 4-OH-tamoxifen-dependent cell death, 1·10^5 MEF5/N9 cells expressing ER(T2) fusion proteins were plated into each well of a six-well plate. The following day, for each sample the medium in two of four individual wells were replaced with medium supplemented with 10^−8 M 4-hydroxy-tamoxifen. 24 hours after induction with 4-OH-tamoxifen, cells were photographed through a Leica DMI6000B fluorescence microscope with phase contrast either at 10-fold or 20-fold magnification.
Since the responsiveness of the clones, transfected with the same construct, to 4-OH-tamoxifen differed only slightly from each other, only the results obtained from one clone for each construct are shown in the figure.

MEF5/N9 cells [4] = assay: MTT cytotoxicity assay of stably transfected MEF5/N9 clones; conditions: 10^−8 M 4-OH-tamoxifen, 48 h
Experimental: as §1
To quantify 4-OH-tamoxifen-inducible cell death, we applied the colorimetric MTT assay (Mossman, J. Immunol. Methods, 65, 55 (1983)) allowing the quantification of cell survival. Cells (4·10^3) were plated on 96-well plates. The assay was carried out in three replicas for each sample treated with and without 4-OH-tamoxifen. After 12 h, medium was replaced either with fresh medium or with medium supplemented with 10^−8 M 4-OH-tamoxifen. Following 48 h of 4-OH-tamoxifen treatment, sterile filtered MTT reagent in PBS (Sigma) was added at the concentration of 0.5 mg/ml. Incubation occurred for 4 hours at 37° C. With ongoing reaction time, dark violet MTT formazan crystals appeared on the bottom of the wells containing living cells. The crystals were dissolved in 150 μl 0.04 N HCl/isopropanol to give a homogeneous blue solution suitable for absorbance measurement at a wavelength of 570 nm on the Synergy™ HT Multi-Detection Microplate Reader (BioTek).

Molecule: Bax-ER(T2): N-terminal fusion of full length murine Bax to ER(T2) ligand binding domain, SEQ ID NO: 48
- 4-OH-tamoxifen-dependent activity / toxicity in transient transfection (in words) (MEF5/N9 cells [1]): neither the N-terminal nor the C-terminal fusion of Bax to ER(T2) displayed any activity
- basal toxicity: relative β-galactosidase activity compared to the negative control in absence of 4-OH-tamoxifen (MEF5/N9 cells [2]): 100%

Molecule: ER(T2)-Bax: spaceless C-terminal fusion of murine Bax to ER(T2), SEQ ID NO: 55; used as negative control in stable clones
- 4-OH-tamoxifen-dependent activity / toxicity in transient transfection (in words) (MEF5/N9 cells [1]): no tamoxifen-dependent activity; also recorded: neither the N-terminal nor the C-terminal fusion of Bax to ER(T2) displayed any activity
- 4-OH-tamoxifen-dependent cell death, phenotype of stable clones (MEF5/N9 cells [3]): did not respond to 4-OH-tamoxifen
- 4-OH-tamoxifen-dependent cell death, phenotype of stable clones (MEF5/N9 cells [3]; listed as ERBax): not affected by the treatment with 4-OH-tamoxifen
- cell viability in the presence of 4-OH-tamoxifen (MTT) (MEF5/N9 cells [4]): not affected by treatment with 4-OH-tamoxifen
- basal toxicity: relative β-galactosidase activity compared to the negative control in absence of 4-OH-tamoxifen (MEF5/N9 cells [2]): 84%

B1: Casp3-ER(T2): full length murine Caspase-3 fused to ER(T2) ligand binding domain, SEQ ID NO: 37 (protein)
chain: MENNKTSVDSKSINNFEVKTIHGSKSVDSGIYLDSSYKMDYPEMGICIIINNKNFHKSTGMSSRSGTDVDAANLRETFMGLKYQVRNKNDLTREDILELMDSVSKEDHSKRSSFVCVILSHGDEGVIYGTNGPVELKKLTSFFRGDYCRSLTGKPKLFIIQACRGTELDCGIETDSGTDEEMACQKIPVEADFLYAYSTAPGYYSWRNSKDGSWFIQSLCSMLKLYAHKLEFMHILTRVNRKVATEFESFSLDSTFHAKKQIPCIVSMLTKELYFYHLEPSAGDMRAANLWPSPLMIKRSKKNSLALSLTADQMVSALLDAEPPILYSEYDPTRPFSEASMMGLLTNLADRELVHMINWAKRVPGFVDLTLHDQVHLLECAWLEILMIGLVWRSMEHPVKLLFAPNLLLDRNQGKCVEGMVEIFDMLLATSSRFRMMNLQGEEFVCLKSIILLNSGVYTFLSSTLKSLEEKDHIHRVLDKITDTLIHLMAKAGLTLQQQHQRLAQLLLILSHIRHMSNKGMEHLYSMKCKNVVPLYDLLLEAADAHRLHAPTSRGGASVEETDQSHLATAGSTSSHSLQKYYITGEAEGFPATA
modifications: fusion gene Casp3-ER(T2)
- 4-OH-tamoxifen-dependent activity / toxicity in transient transfection (in words) (MEF5/N9 cells [1]): low compared to the Caspase 8 or Caspase 9 ER(T2) fusion variants
- relative β-galactosidase activity in presence of 4-OH-tamoxifen compared to the negative control (MEF5/N9 cells [1]): 28%
- 4-OH-tamoxifen-dependent cell death, phenotype of stable clones (MEF5/N9 cells [3]): neither the two Fas-ER(T2) variants (see FIG. 4 H2, I2) nor Casp3-ER(T2) (FIG. 4 E2) were able to induce apoptosis in the presence of 4-OH-tamoxifen
- 4-OH-tamoxifen-dependent cell death, phenotype of stable clones (MEF5/N9 cells [3]; listed as Casp3ER): not affected by the treatment with 4-OH-tamoxifen
- cell viability in the presence of 4-OH-tamoxifen (MTT) (MEF5/N9 cells [4]): not affected by treatment with 4-OH-tamoxifen
- basal toxicity: relative β-galactosidase activity compared to the negative control in absence of 4-OH-tamoxifen (MEF5/N9 cells [2]): 52%

B2: Casp9trunc-ER(T2): truncated murine Caspase-9 without CARD domain fused to ER(T2) ligand binding domain, SEQ ID NO: 32 (protein)
chain: MGRQAAKQDPEAVKPLDHLVPVVLGPMGLTAKEQRVVKLDPSQPAVGNLTPVVLGPEELWPARLKPEVLRPETPRPVDIGSGGAHDVCVPGKIRGHADMAYTLDSDPCGHCLIINNVNFCPSSGLGTRTGSNLDRDKLEHRFRWLRFMVEVKNDLTAKKMVTALMEMAHRNHRALDCFVVVILSHGCQASHLQFPGAVYGTDGCSVSIEKIVNIFNGSGCPSLGGKPKLFFIQACGGEQKDHGFEVACTSSQGRTLDSDSEPDAVPYQEGPRPLDQLDAVSSLPTPSDILVSYSTFPGFVSWRDKKSGSWYIETLDGILEQWARSEDLQSLLLRVANAVSAKGTYKQIPGCFNFLRKKLFFKTSVEPSAGDMRAANLWPSPLMIKRSKKNSLALSLTADQMVSALLDAEPPILYSEYDPTRPFSEASMMGLLTNLADRELVHMINWAKRVPGFVDLTLHDQVHLLECAWLEILMIGLVWRSMEHPVKLLFAPNLLLDRNQGKCVEGMVEIFDMLLATSSRFRMMNLQGEEFVCLKSIILLNSGVYTFLSSTLKSLEEKDHIHRVLDKITDTLIHLMAKAGLTLQQQHQRLAQLLLILSHIRHMSNKGMEHLYSMKCKNVVPLYDLLLEAADAHRLHAPTSRGGASVEETDQSHLATAGSTSSHSLQKYYITGEAEGFPATA
modifications: fusion protein Casp9trunc-ER(T2)
- relative β-galactosidase activity in presence of 4-OH-tamoxifen compared to the negative control (MEF5/N9 cells [1]): 22%
- 4-OH-tamoxifen-dependent cell death, phenotype of stable clones (MEF5/N9 cells [3]): weaker susceptibility to 4-OH-tamoxifen
- 4-OH-tamoxifen-dependent cell death, phenotype of stable clones (MEF5/N9 cells [3]; listed as Casp9truncER): substantial cell death
- basal toxicity: relative β-galactosidase activity compared to the negative control in absence of 4-OH-tamoxifen (MEF5/N9 cells [2]): 70%

B3: Casp3-ED4ER(T2): full length murine Caspase-3 fused directly to N-terminal shortened ER(T2) domain, SEQ ID NO: 41 (protein)
chain: MENNKTSVDSKSINNFEVKTIHGSKSVDSGIYLDSSYKMDYPEMGICIIINNKNFHKSTGMSSRSGTDVDAANLRETFMGLKYQVRNKNDLTREDILELMDSVSKEDHSKRSSFVCVILSHGDEGVIYGTNGPVELKKLTSFFRGDYCRSLTGKPKLFIIQACRGTELDCGIETDSGTDEEMACQKIPVEADFLYAYSTAPGYYSWRNSKDGSWFIQSLCSMLKLYAHKLEFMHILTRVNRKVATEFESFSLDSTFHAKKQIPCIVSMLTKELYFYHLESLALSLTADQMVSALLDAEPPILYSEYDPTRPFSEASMMGLLTNLADRELVHMINWAKRVPGFVDLTLHDQVHLLECAWLEILMIGLVWRSMEHPVKLLFAPNLLLDRNQGKCVEGMVEIFDMLLATSSRFRMMNLQGEEFVCLKSIILLNSGVYTFLSSTLKSLEEKDHIHRVLDKITDTLIHLMAKAGLTLQQQHQRLAQLLLILSHIRHMSNKGMEHLYSMKCKNVVPLYDLLLEAADAHRLHAPTSRGGASVEETDQSHLATAGSTSSHSLQKYYITGEAEGFPATA
modifications: fusion gene Casp3-ED4ER(T2)
- 4-OH-tamoxifen-dependent activity / toxicity in transient transfection (in words) (MEF5/N9 cells [1]): could not be regulated in presence of 4-OH-tamoxifen
- basal toxicity: relative β-galactosidase activity compared to the negative control in absence of 4-OH-tamoxifen (MEF5/N9 cells [2]): 52%
